This is an account of results in patent publication US20220062145A1 (LIPOTRUE S L, published 2022).

The target of this assay is elastase enzyme. As to the kind of experiment: cell-based or functional assay.

For the molecule Ac-ALHKVK-NH2 [Ac-Ala-Leu-His-Lys-Val-Lys-NH2], the “percentage of elastase inhibition with regard to the positive control (PMSF = 100%), absorbance at 405 nm” value was ~39 % of positive control.
